In patent publication US20120034160A1 (AbbVie / Abbott, published 2012):
Where a chain is given by its changes, count along the chain named. Each block holds one binder with its values, some of them ahead of it.

Key:
Recombinant Human IL-1β [1] = molecular target: T1, Recombinant Human IL-1β (human, UniProt P01584 117-269); assay: cell-based or functional assay
Recombinant Human IL-17 [2] = molecular target: T2, Recombinant Human IL-17 (human, UniProt Q16552 20-155, limits assumed); assay: cell-based or functional assay
T2 sequence (looked up): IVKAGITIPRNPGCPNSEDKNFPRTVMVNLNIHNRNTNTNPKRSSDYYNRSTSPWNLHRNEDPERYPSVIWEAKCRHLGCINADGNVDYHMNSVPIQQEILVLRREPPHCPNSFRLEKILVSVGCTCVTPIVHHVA

Recombinant Human IL-1β [3] = molecular target: T1, Recombinant Human IL-1β; assay: Biacore SPR; C-terminal VD
Outline: (§1)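 First, goat anti-mouse IgG was immobilized on a CM5 chip by amine coupling. Next, test antibody or DVD-Ig (25 μg/ml) was captured. Then antigen at 10−200 nM flowed over at 25 μl/min, 25° C. Finally, association and dissociation phases were globally fitted to a 1:1 model.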

Recombinant Human IL-17 [4] = molecular target: T2, Recombinant Human IL-17; assay: Biacore SPR; N-terminal VD
Outline: as §1

Recombinant Human IL-17 [5] = molecular target: T2, Recombinant Human IL-17; assay: Biacore SPR; C-terminal VD
Outline: as §1

Recombinant Human IL-1β [6] = molecular target: T1, Recombinant Human IL-1β; assay: Biacore SPR; N-terminal VD
Outline: as §1

B2: DVD1639 (bispecific antibody, human IgG1, kappa)
heavy: not shown
light: DIQMTQSPSSLSASVGDRVTITCRASGNIHNYLTWYQQTPGKAPKLLIYNAKTLADGVPSRFSGSGSGTDYTFTISSLQPEDIATYYCQHFWSIPYTFGQGTKLQITRTVAAPEIVLTQSPDFQSVTPKEKVTITCRASQNIGSELHWYQQKPDQSPKLLIKYASHSISGVPSRFSGSGSGTDFTLTINGLEAEDAATYYCHQSDTLPHTFGQGTKVDIKRTVAAPSVFIFPPSDEQLKSGTASVVCLLNNFYPREAKVQWKVDNALQSGNSQESVTEQDSKDSTYSLSSTLTLSKADYEKHKVYACEVTHQGLSSPVTKSFNRGEC
notes: V1/V2 vectors: wild type hIgG1, kappa
N-Terminal VD IL-1β Neutralization Assay EC50 (Recombinant Human IL-1β [1]): 0.0113 nM
C-terminal VD IL-17 Neutralization Assay EC50 (Recombinant Human IL-17 [2]): 2.61 nM
Kd (Recombinant Human IL-17 [5]): ≤ 0.0028 nM
koff (Recombinant Human IL-17 [5]): ≤ 1e-06 s⁻¹
kon (Recombinant Human IL-17 [5]): 370000 M⁻¹ s⁻¹
Kd (Recombinant Human IL-1β [6]): 0.045 nM
koff (Recombinant Human IL-1β [6]): 5.6e-05 s⁻¹
kon (Recombinant Human IL-1β [6]): 1.2e+06 M⁻¹ s⁻¹

B5: DVD1634 (bispecific antibody, human IgG1, kappa)
heavy: not shown
light: EIVLTQSPDFQSVTPKEKVTITCRASQDIGSELHWYQQKPDQPPKLLIKYASHSTSGVPSRFSGSGSGTDFTLTINGLEAEDAGTYYCHQTDSLPYTFGPGTKVDIKRTVAAPDTQVTQSPSSLSASVGDRVTITCITSTDIDVDMNWYQQKPGKPPKLLISQGNTLRPGVPSRFSSSGSGTDFTFTISSLQPEDFATYYCLQSDNLPLTFGQGTKLEIKRTVAAPSVFIFPPSDEQLKSGTASVVCLLNNFYPREAKVQWKVDNALQSGNSQESVTEQDSKDSTYSLSSTLTLSKADYEKHKVYACEVTHQGLSSPVTKSFNRGEC
notes: DVD-Ig: outer AB274, inner AB270; V1/V2 vectors: wild type hIgG1, kappa
C-Terminal VD IL-1β Neutralization Assay EC50 (Recombinant Human IL-1β [1]): > 12 nM
N-terminal VD IL-17 Neutralization Assay EC50 (Recombinant Human IL-17 [2]): 24.1 pM
Kd (Recombinant Human IL-1β [3]): 0.63 nM
koff (Recombinant Human IL-1β [3]): 0.00055 s⁻¹
kon (Recombinant Human IL-1β [3]): 870000 M⁻¹ s⁻¹
Kd (Recombinant Human IL-17 [4]): 5.2 pM
koff (Recombinant Human IL-17 [4]): 1.9e-05 s⁻¹
kon (Recombinant Human IL-17 [4]): 3.7e+06 M⁻¹ s⁻¹

B6: DVD1638 (bispecific antibody, human IgG1, kappa)
heavy: not shown
light: B5 light with D114E, Q116T
notes: DVD-Ig: outer AB274, inner AB272; V1/V2 vectors: wild type hIgG1, kappa
C-Terminal VD IL-1β Neutralization Assay EC50 (Recombinant Human IL-1β [1]): > 20 nM
N-terminal VD IL-17 Neutralization Assay EC50 (Recombinant Human IL-17 [2]): 6.9 pM
Kd (Recombinant Human IL-1β [3]): 0.63 nM
koff (Recombinant Human IL-1β [3]): 0.00085 s⁻¹
kon (Recombinant Human IL-1β [3]): 1.3e+06 M⁻¹ s⁻¹
Kd (Recombinant Human IL-17 [4]): 6.8 pM
koff (Recombinant Human IL-17 [4]): 2.7e-05 s⁻¹
kon (Recombinant Human IL-17 [4]): 3.9e+06 M⁻¹ s⁻¹

Further lines, results first:

C-Terminal VD IL-1β Neutralization Assay EC50 (Recombinant Human IL-1β [1]): 20.6 nM
N-terminal VD IL-17 Neutralization Assay EC50 (Recombinant Human IL-17 [2]): 8.2 pM
Kd (Recombinant Human IL-1β [3]): 0.62 nM
koff (Recombinant Human IL-1β [3]): 0.00063 s⁻¹
kon (Recombinant Human IL-1β [3]): 1e+06 M⁻¹ s⁻¹
Kd (Recombinant Human IL-17 [4]): 12 pM
koff (Recombinant Human IL-17 [4]): 4.7e-05 s⁻¹
kon (Recombinant Human IL-17 [4]): 3.9e+06 M⁻¹ s⁻¹
B1: DVD1646 (bispecific antibody, human IgG1, kappa)
heavy: not shown
light: EIVLTQSPDFQSVTPKEKVTITCRASQNIGSELHWYQQKPDQSPKLLIKYASHSISGVPSRFSGSGSGTDFTLTINGLEAEDAATYYCHQSDTLPHTFGQGTKVDIKRTVAAPDTVVTQSPAFLSVTPGEKVTITCITSTDIDVDMNWYQQKPDQPPKLLISQGNTLRPGVPSRFSSSGSGTDFTFTISSLEAEDAATYYCLQSDNLPLTFGQGTKLEIKRTVAAPSVFIFPPSDEQLKSGTASVVCLLNNFYPREAKVQWKVDNALQSGNSQESVTEQDSKDSTYSLSSTLTLSKADYEKHKVYACEVTHQGLSSPVTKSFNRGEC
notes: DVD-Ig: outer AB275, inner AB271; V1/V2 vectors: wild type hIgG1, kappa

N-Terminal VD IL-1β Neutralization Assay EC50 (Recombinant Human IL-1β [1]): 0.0786 nM
C-terminal VD IL-17 Neutralization Assay EC50 (Recombinant Human IL-17 [2]): 1.87 nM
Kd (Recombinant Human IL-17 [5]): 0.27 nM
koff (Recombinant Human IL-17 [5]): 2.2e-05 s⁻¹
kon (Recombinant Human IL-17 [5]): 84000 M⁻¹ s⁻¹
Kd (Recombinant Human IL-1β [6]): 0.018 nM
koff (Recombinant Human IL-1β [6]): 1.9e-05 s⁻¹
kon (Recombinant Human IL-1β [6]): 1e+06 M⁻¹ s⁻¹
B3: DVD1641 (bispecific antibody, human IgG1, kappa)
heavy: not shown
light: B2 light
notes: as for B2

N-Terminal VD IL-1β Neutralization Assay EC50 (Recombinant Human IL-1β [1]): 0.417 nM
C-terminal VD IL-17 Neutralization Assay EC50 (Recombinant Human IL-17 [2]): 0.15 nM
Kd (Recombinant Human IL-17 [5]): 0.65 nM
koff (Recombinant Human IL-17 [5]): 8.1e-05 s⁻¹
kon (Recombinant Human IL-17 [5]): 120000 M⁻¹ s⁻¹
Kd (Recombinant Human IL-1β [6]): 0.08 nM
koff (Recombinant Human IL-1β [6]): 0.00056 s⁻¹
kon (Recombinant Human IL-1β [6]): 7e+06 M⁻¹ s⁻¹
B4: DVD1645 (bispecific antibody, human IgG1, kappa)
heavy: not shown
light: DTVVTQSPAFLSVTPGEKVTITCITSTDIDVDMNWYQQKPDQPPKLLISQGNTLRPGVPSRFSSSGSGTDFTFTISSLEAEDAATYYCLQSDNLPLTFGQGTKLEIKRTVAAPEIVLTQSPDFQSVTPKEKVTITCRASQNIGSELHWYQQKPDQSPKLLIKYASHSISGVPSRFSGSGSGTDFTLTINGLEAEDAATYYCHQSDTLPHTFGQGTKVDIKRTVAAPSVFIFPPSDEQLKSGTASVVCLLNNFYPREAKVQWKVDNALQSGNSQESVTEQDSKDSTYSLSSTLTLSKADYEKHKVYACEVTHQGLSSPVTKSFNRGEC
notes: DVD-Ig: outer AB271, inner AB275; V1/V2 vectors: wild type hIgG1, kappa
